Data taken from PMC10912661 (Scientific Reports, 2024).

Columns and labels:
Settings in all cases: both partners purified
[1] = biological target: T1, human hemoglobin (bought powder, gel-filtered, for in vitro assays) (human, UniProt P69905 1-142; P68871 1-147); test: SPR
[2] = biological target: T1, human hemoglobin (bought powder, …); test: SPR; remark: listed apart in the source
[3] = biological target: T2, β-chain of human hemoglobin (in the Hb tetramer of the crystal) (human, UniProt P68871 1-147); test: crystal structure
T2 construct: also called β-chain of Hb; chain ß; source: purified from human blood of a single healthy donor, as part of Hb
T2 sequence (P68871 whole entry): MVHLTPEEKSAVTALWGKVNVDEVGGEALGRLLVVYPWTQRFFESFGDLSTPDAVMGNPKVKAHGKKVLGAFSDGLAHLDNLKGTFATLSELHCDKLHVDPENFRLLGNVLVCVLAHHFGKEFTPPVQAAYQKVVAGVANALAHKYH

[4] = biological target: human hemoglobin purified from donor blood (carboxyhemoglobin form, for crystallography) (human, UniProt P69905 1-142; P68871 1-147); test: crystal structure
Sequence of human hemoglobin purified from donor blood (carboxyhemoglobin form, for crystallography) (P69905 whole entry, chain 1 of 2): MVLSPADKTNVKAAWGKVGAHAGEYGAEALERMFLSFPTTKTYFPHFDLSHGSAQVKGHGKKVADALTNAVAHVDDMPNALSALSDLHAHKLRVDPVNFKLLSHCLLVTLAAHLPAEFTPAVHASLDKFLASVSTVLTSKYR
Sequence of human hemoglobin purified from donor blood (carboxyhemoglobin form, for crystallography) (P68871 whole entry, chain 2 of 2): as the sequence (P68871 whole entry) above

T1 sequence (P69905 whole entry, chain 1 of 2): as the sequence (P69905 whole entry, chain 1 of 2) above
T1 sequence (P68871 whole entry, chain 2 of 2): as the sequence (P68871 whole entry) above

B1: hemoglobin-interacting domain 2 (HID2) of Shr, residues 169-294, wild type (domain or fragment)
chain: SGKNTANLSLITKLSQEDGAILFPEIDRYSDNKQIKALTQQITKVTVNGTVYKDLISDSVKDTNGWVSNMTGLHLGTKAFKDGENTIVISSKGFEDVTITVTKKDGQIHFVSAKQKQHVTAEDRQS
notes: also called WT; WT HID2; source: E. coli BL21(DE3), pET28b, purified (Ni-NTA, TEV cleavage, second Ni column, SEC Superdex-75)
[1]
  Kd: 22 ± 0.12 µM
  koff: 0.65 ± 0.025 s⁻¹
  kon: 30000 ± 160 M⁻¹ s⁻¹
[2]
  Kd: 25 µM
[3]
  binding result: binds
[4]
  stoichiometry N: 3 HID2 per Hb tetramer
